Data reported in paper PMC5648539.

Target: FLAG-tagged human CXCR4, wild type (human) (UniProt P61073)
Sequence (P61073 whole entry): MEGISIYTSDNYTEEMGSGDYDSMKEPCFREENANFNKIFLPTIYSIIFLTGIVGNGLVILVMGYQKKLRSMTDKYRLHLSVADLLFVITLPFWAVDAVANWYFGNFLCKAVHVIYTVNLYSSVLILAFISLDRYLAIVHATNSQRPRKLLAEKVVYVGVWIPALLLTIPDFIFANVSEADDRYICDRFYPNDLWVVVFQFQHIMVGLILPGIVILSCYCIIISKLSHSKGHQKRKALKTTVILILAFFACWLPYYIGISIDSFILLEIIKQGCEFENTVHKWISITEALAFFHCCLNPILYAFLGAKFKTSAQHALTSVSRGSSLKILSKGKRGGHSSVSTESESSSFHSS

Row | Substance | Ca2+ flux response (potency) | Ca2+ flux dose response (printed as Kd)
1 | CXCL12(R8A) (from UniProt P48061-2 22-89) (ligand) | 110 nM | 
2 | CXCL12(R12A) (from UniProt P48061-2 22-89) (ligand) | 95 nM | 
3 | CXCL12 with Asn33 mutated to glutamic acid (from UniProt P48061-2 22-89) (ligand) |  | 21 nM
